According to US20230391845A1, “GLP-1, GIP AND GLUCAGON RECEPTOR TRIPLE AGONISTS” (priority 2020, published 2023):
Where no end group is shown, it is not given here. [ ]: non-standard residue; d: D form. Aib = CC(C)(N)C(=O)O

B1: Compound No. 24 (peptide)
peptide: H[Aib]HGTFTSDYSIYLEKQYA[Aib]EFVQWLLEGGPSSGAPPPS-NH2
modifications: not fully specified (residue 16); printed as H-Aib-HGTFTSDYSIYLE-K[(2S)-2-amino-6-[[(2S)-2-amino-6-[[(4S)-4-carboxy-4-(19-carboxynonadecanoylamino)butanoyl]amino]hexanoyl]amino]hexanoyl]-QYA-Aib-EFVQWLLEGGPSSGAPPPS-NH2
B2: Compound No. 22 (peptide)
peptide: H[Aib]HGTFTSDYSIYLEKQAA[Aib]EFVQWLLEGGPSSGAPPPS-NH2
modifications: not fully specified (residue 16); printed as H-Aib-HGTFTSDYSIYLE-K[(2S)-2-amino-6-[[(2S)-2-amino-6-[[(4S)-4-carboxy-4-(19-carboxynonadecanoylamino)butanoyl]amino]hexanoyl]amino]hexanoyl]-QAA-Aib-EFVQWLLEGGPSSGAPPPS-NH2
B3: Compound No. 19 (peptide)
peptide: H[Aib]QGTFTSDYSIYLEKQAA[Aib]EFVQWLLEGGPSSGAPPPS-NH2
modifications: not fully specified (residue 16); printed as H-Aib-QGTFTSDYSIYLE-K[(2S)-2-amino-6-[[(2S)-2-amino-6-[[(4S)-4-carboxy-4-(19-carboxynonadecanoylamino)butanoyl]amino]hexanoyl]amino]hexanoyl]-QAA-Aib-EFVQWLLEGGPSSGAPPPS-NH2
B4: Compound No. 20 (peptide)
peptide: Y[Aib]QGTFTSDYSIYLEKQAAQEFVQWLLEGGPSSGAPPPS-NH2
modifications: not fully specified (residue 16); printed as Y-Aib-QGTFTSDYSIYLE-K[2-[2-[2-[[2-[2-[2-[[(4S)-4-carboxy-4-[[4-[(19-carboxynonadecanoylamino)methyl]cyclohexanecarbonyl]amino]butanoyl]amino]ethoxy]ethoxy]acetyl]amino]ethoxy]ethoxy]acetyl]-QAAQEFVQWLLEGGPSSGAPPPS-NH2
B5: Compound No. 23 (peptide)
peptide: H[Aib]HGTFTSDYSIYLEKQAAQEFVQWLLEGGPSSGAPPPS-NH2
modifications: not fully specified (residue 16); printed as H-Aib-HGTFTSDYSIYLE-K[(2S)-2-amino-6-[[(2S)-2-amino-6-[[(4S)-4-carboxy-4-[[4-[(19-carboxynonadecanoylamino)methyl]cyclohexanecarbonyl]amino]butanoyl]amino]hexanoyl]amino]hexanoyl]-QAAQEFVQWLLEGGPSSGAPPPS-NH2
B6: Compound No. 25 (peptide)
peptide: H[Aib]HGTFTSDYSYYLEKQAA[Aib]EFVQWLLEGGPSSGAPPPS-NH2
modifications: not fully specified (residue 16); printed as H-Aib-HGTFTSDYSYYLE-K[(2S)-2-amino-6-[[(2S)-2-amino-6-[[(4S)-4-carboxy-4-[[4-[(19-carboxynonadecanoylamino)methyl]cyclohexanecarbonyl]amino]butanoyl]amino]hexanoyl]amino]hexanoyl]-QAA-Aib-EFVQWLLEGGPSSGAPPPS-NH2

Columns and labels:
Test in all cases: cell-based or functional assay
[1] = target: human glucagon-like peptide 1 receptor (human, UniProt P43220 24-463)
[2] = target: T1, human glucose-dependent insulinotropic polypeptide receptor (human, UniProt P48546 22-466)
T1 sequence (looked up): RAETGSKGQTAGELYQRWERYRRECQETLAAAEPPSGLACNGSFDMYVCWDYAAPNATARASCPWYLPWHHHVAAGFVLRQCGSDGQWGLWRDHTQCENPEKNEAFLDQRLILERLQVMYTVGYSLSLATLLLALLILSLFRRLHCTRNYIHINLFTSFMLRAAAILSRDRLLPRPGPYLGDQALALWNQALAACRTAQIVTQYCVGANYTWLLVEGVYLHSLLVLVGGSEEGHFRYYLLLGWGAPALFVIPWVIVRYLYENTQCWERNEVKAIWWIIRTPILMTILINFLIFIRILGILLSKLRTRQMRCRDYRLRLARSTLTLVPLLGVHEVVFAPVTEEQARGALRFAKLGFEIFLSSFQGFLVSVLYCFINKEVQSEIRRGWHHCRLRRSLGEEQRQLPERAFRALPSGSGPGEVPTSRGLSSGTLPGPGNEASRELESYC

human glucagon receptor = human glucagon receptor (human, UniProt P47871 26-477)
Chain of human glucagon receptor (P47871 26-477): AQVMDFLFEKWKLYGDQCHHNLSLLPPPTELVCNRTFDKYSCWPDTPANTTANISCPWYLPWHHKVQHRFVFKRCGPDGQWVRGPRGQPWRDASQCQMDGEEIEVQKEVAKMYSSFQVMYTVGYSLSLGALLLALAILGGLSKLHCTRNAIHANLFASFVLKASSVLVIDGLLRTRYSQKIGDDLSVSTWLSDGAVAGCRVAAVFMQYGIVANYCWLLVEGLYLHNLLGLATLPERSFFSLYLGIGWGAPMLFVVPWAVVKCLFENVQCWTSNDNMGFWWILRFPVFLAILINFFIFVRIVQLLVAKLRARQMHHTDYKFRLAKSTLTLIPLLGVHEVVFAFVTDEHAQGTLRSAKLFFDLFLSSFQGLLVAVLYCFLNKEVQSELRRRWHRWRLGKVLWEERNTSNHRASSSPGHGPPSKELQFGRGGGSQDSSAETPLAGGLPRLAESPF

Row | Binder | hGLP-1R CRE Luc EC50 (pM) [1] | hGIPR CRE Luc EC50 (pM) [2] | hGcgR CRE Luc EC50 (pM) (human glucagon receptor)
1 | B1 | 6.8 pM | 7.7 pM | 13.1 pM
2 | B2 | 2 pM | 7.1 pM | 48.7 pM
3 | B3 | 1.7 pM | 55 pM | 357 pM
4 | B4 | 5.1 pM | 8.1 pM | 147 pM
5 | B5 | 2 pM | 5.1 pM | 18.3 pM
6 | B6 | 4.6 pM | 6.9 pM | 25.2 pM
